Columns and labels:
TCR signaling [1] = assay: Co-culture of SKW-3 cells expressing sleeping beauty transposon reporters with peptide-loaded B cells (GFP / HA reporter); type: cell-based; settings: 1 μM peptide
Method: (§1) Sleeping beauty transposon reporter constructs were transfected together with transposases into T cells, 5 to 1 ratio, using the Neon transfection system following the manufacturer's protocol. The voltages used for Jurkat cells were 1350V/[…]/3 pulse, and for SKW-3 cells 1500V, […] and 1 pulse were used as settings. 48-72 hours after transfection, the cells were selected using […] Blasticidin for Jurkat and […] Blasticidin for SKW-3 cells.
(§2) Co-culture experiments were performed using round-bottom 96-well plates. P10-NBV Jurkat and SKW-3 reporter cells and B cells were seeded at a 1:1 ratio into each well. For peptide co-culture experiments, either cognate peptide or mismatched peptide is added to each well and incubated for 16 hours. For minigene-based co-culture experiments, minigene-transduced B cells harboring either the cognate of mismatch minigenes were used. Next day the cells are spun down and stained for Flow cytometry.

TCR signaling [2] = assay: Co-culture of Jurkat reporter cells carrying synthetic promoters with peptide-loaded B cells (GFP / HA reporter); type: cell-based
Method: as §1, §2

B1: NBV promoter: synthetic TCR responsive promoter, SEQ ID NO:50 (nucleic acid)
DNA: GAATTCAAGTACCGTGCAGGAGGAAAAACTGTTTCATACAGAAGGCGTGGGCTATGCAAATCGAAACGCTGGAAACACTGAGTAATCAGATCAAGTCATGTTTCCATTTGAATGCAAATGGATACAGAAGGCGTGGAGGAAAAACTGTTTCCTGTTCCAATAGACGCCCTTTTTGAATGCAAATGGCGAGCTCATGGGTTTCTCCACCAAGGTGACGAGTGGAAAATCTGACTCAGAATTATCCCTTGTTATGCAAATCGCCCAAAGAGGAAAATTTGTTTCATAGAACATACTGTCTCAAATAGACGCCTCCTCGAGCGTTTCCCGGGGTACC
- HA and GFP fluorescence intensities with 2 copies of promoter instead of 1 (TCR signaling [1]): doubled
- GFP and HA reporter gene expression in sleeping beauty constructs (TCR signaling [2]; sleeping beauty constructs): high GFP and HA reporter gene expression
- GFP and HA median intensity compared to NFAT promoters (TCR signaling [2]; sleeping beauty transposon reporters in Jurkat cells, 1 μM peptide): best signal
- intensity of HA and GFP signals compared to 4×NFAT (TCR signaling [2]; sleeping beauty transposon system, different concentrations of cognate peptide): higher intensity of both HA and GFP signals

Reference: patent US20250154494A1, “Microfluidic Co-Encapsulation Device and System and Methods for Identifying T-Cell Receptor Ligands” (JANSSEN BIOTECH, INC., priority 2021, published 2025)
